{"source": "patent US9371374", "about": "(AbbVie / Abbott, dated 2016)", "key": {"HCV Core1-169 [1]": {"target": "T1, HCV Core1-169 (HCV-1, UniProt P26664 1-169)", "T1 construct": "also called Solid Phase HCV Core", "T1 sequence": "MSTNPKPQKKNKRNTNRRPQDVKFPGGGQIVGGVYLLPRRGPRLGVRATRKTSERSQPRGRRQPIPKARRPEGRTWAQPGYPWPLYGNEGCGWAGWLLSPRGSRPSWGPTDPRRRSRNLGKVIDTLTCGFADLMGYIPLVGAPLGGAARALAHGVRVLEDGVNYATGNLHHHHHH", "assay": "sandwich EIA, capture C11-9"}, "HCV Core1-169 [2]": {"target": "T1, HCV Core1-169", "assay": "sandwich EIA, capture 208A-110"}, "HCV Core1-169 [3]": {"target": "T1, HCV Core1-169", "assay": "sandwich EIA, NC capture mAb; also: test concentration or dose not given here"}, "HCV Core1-169 [4]": {"target": "T1, HCV Core1-169", "assay": "sandwich EIA, capture 208A-207-271"}, "HCV Core1-169 [5]": {"target": "T1, HCV Core1-169", "assay": "sandwich EIA, capture 208B-741"}, "HCV Core1-169 [6]": {"target": "T1, HCV Core1-169", "assay": "sandwich EIA, capture 208B-612-226"}, "HCV Core1-169 [7]": {"target": "T1, HCV Core1-169", "assay": "sandwich EIA, capture 208B-1096"}, "HCV Core1-169 [8]": {"target": "T1, HCV Core1-169", "assay": "sandwich EIA, capture 208A-557"}, "HCV Core1-169 [9]": {"target": "T1, HCV Core1-169", "assay": "sandwich EIA, capture 208A-293"}, "HCV Core1-169 [10]": {"target": "T1, HCV Core1-169", "assay": "sandwich EIA, capture 208B-395-334"}, "HCV Core1-169 [11]": {"target": "T1, HCV Core1-169", "assay": "sandwich EIA, capture C11-7"}, "[12]": {"target": "HCV Core 134-171-TT peptide (ALRZ-9 peptide) (HCV-1)", "assay": "SPR, captured mAb;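 also: Anti-HCV Core mAbs from hybridoma supernatants held on a rabbit anti-mouse IgG CM5 surface, peptide flowed over 3 min then 4 min dissociation, duplicate concentrations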"}, "HCV Core1-169 [13]": {"target": "T1, HCV Core1-169", "assay": "sandwich EIA, capture 208A-692"}, "HCV Core1-169 [14]": {"target": "T1, HCV Core1-169", "assay": "EIA, coated core1-169"}, "HCV Core1-169 [15]": {"target": "T1, HCV Core1-169", "assay": "EIA, core captured by anti-domain 1 mAb"}}}
{"binder": "HCV 208B-612 (antibody, V domains shown) VH: EVQLQQSGPELVKPGASVKMSCKASGYRFTSYVMHWVRQKPGQGLEWIGYIDPHNDDTKYSEKFRGKATLTSDKSSTTAYMELSSLTSEDSAVYYCVRYSYDRDYSPMDYWGQGTSVTVSS VL: QIVLTQSPTLMSASPGEKVTMTCSASSTVTYIYWYQQKPGSSPRLWMYDTFNLVSGVPARFSGSRSGTSYFLTISSMEGEDAATYYCQQYSDSPYTFGGGTKLEIKR", "values": [{"measurement": "OD492", "setting": "HCV Core1-169 [1]", "result": 0.64, "unit": "OD"}, {"measurement": "OD492", "setting": "HCV Core1-169 [2]", "result": 0.26, "unit": "OD"}, {"measurement": "OD492", "setting": "HCV Core1-169 [3]", "result": 0.21, "unit": "OD"}, {"measurement": "OD492", "setting": "HCV Core1-169 [4]", "result": 0.24, "unit": "OD"}, {"measurement": "OD492", "setting": "HCV Core1-169 [5]", "result": 0.23, "unit": "OD"}, {"measurement": "OD492", "setting": "HCV Core1-169 [6]", "result": 0.23, "unit": "OD"}, {"measurement": "OD492", "setting": "HCV Core1-169 [7]", "result": 0.7, "unit": "OD"}, {"measurement": "OD492", "setting": "HCV Core1-169 [8]", "result": 0.23, "unit": "OD"}, {"measurement": "OD492", "setting": "HCV Core1-169 [9]", "result": 0.28, "unit": "OD"}, {"measurement": "OD492", "setting": "HCV Core1-169 [10]", "result": 0.83, "unit": "OD"}, {"measurement": "OD492", "setting": "HCV Core1-169 [11]", "result": 1.52, "unit": "OD"}, {"measurement": "Kd", "setting": "[12]", "result": 0.35, "unit": "nM"}, {"measurement": "koff", "setting": "[12]", "result": "6.5e-05", "unit": "s⁻¹"}, {"measurement": "kon", "setting": "[12]", "result": 180000, "unit": "M⁻¹ s⁻¹"}]}
{"binder": "HCV 208B-1096 (antibody, V domains shown) VH: QVQLQQSGAGLAKPGASVKMSCKASGYTFTANKMHWAKQRPGQGLEWIGYIDPSSGYTEYNHKIQYKATLTADTSSSTAYMQLSTLTFEDSAVYYCTNFAYWGQGTLVTVSA VL: DIVMTQTPLTLSVTIGQPASISCKSSQSLLFTNGKTYLNWFLQRPGQSPKRLIYLLSKLDSGVPDRFSGSGSGTDFTLKISRVEAEDLGVYYCLQSTYFPLTFGAGTKLELKR", "values": [{"measurement": "OD492", "setting": "HCV Core1-169 [1]", "result": 0.33, "unit": "OD"}, {"measurement": "OD492", "setting": "HCV Core1-169 [2]", "result": 0.19, "unit": "OD"}, {"measurement": "OD492", "setting": "HCV Core1-169 [3]", "result": 0.17, "unit": "OD"}, {"measurement": "OD492", "setting": "HCV Core1-169 [4]", "result": 0.18, "unit": "OD"}, {"measurement": "OD492", "setting": "HCV Core1-169 [5]", "result": 0.23, "unit": "OD"}, {"measurement": "OD492", "setting": "HCV Core1-169 [6]", "result": 0.24, "unit": "OD"}, {"measurement": "OD492", "setting": "HCV Core1-169 [7]", "result": 0.26, "unit": "OD"}, {"measurement": "OD492", "setting": "HCV Core1-169 [8]", "result": 0.17, "unit": "OD"}, {"measurement": "OD492", "setting": "HCV Core1-169 [9]", "result": 0.24, "unit": "OD"}, {"measurement": "OD492", "setting": "HCV Core1-169 [13]", "result": 0.15, "unit": "OD"}, {"measurement": "OD492", "setting": "HCV Core1-169 [10]", "result": 0.2, "unit": "OD"}, {"measurement": "OD492", "setting": "HCV Core1-169 [11]", "result": 1.06, "unit": "OD"}, {"measurement": "Kd", "setting": "[12]", "result": 0.46, "unit": "nM"}, {"measurement": "koff", "setting": "[12]", "result": 0.0006, "unit": "s⁻¹"}, {"measurement": "kon", "setting": "[12]", "result": "1.3e+06", "unit": "M⁻¹ s⁻¹"}]}
{"binder": "HCV 208B-395 (antibody, V domains shown) VH: QVQLQQSGAGLAKPGASVKMSCKASGYTFTANKMHWTKQRPGQGLEWIGYIDPSSGYTQYNHKIQDKATLTADTSSSTAYMQLSSLTFEDSAVYYCTNFAYWGQGTLVTVSA VL: DIVLTQSPATLSVTPGDRVSLSCRASQRIYNYLHWYQQKSHESPRLLIKYASQSISGIPSRFSGSGSGTDFILTINSVETEDFGMYFCQQSNSWPLTFGAGTKLELRR", "values": [{"measurement": "OD492", "setting": "HCV Core1-169 [1]", "result": 0.32, "unit": "OD"}, {"measurement": "OD492", "setting": "HCV Core1-169 [2]", "result": 0.21, "unit": "OD"}, {"measurement": "OD492", "setting": "HCV Core1-169 [3]", "result": 0.2, "unit": "OD"}, {"measurement": "OD492", "setting": "HCV Core1-169 [4]", "result": 0.2, "unit": "OD"}, {"measurement": "OD492", "setting": "HCV Core1-169 [5]", "result": 0.21, "unit": "OD"}, {"measurement": "OD492", "setting": "HCV Core1-169 [6]", "result": 0.26, "unit": "OD"}, {"measurement": "OD492", "setting": "HCV Core1-169 [7]", "result": 0.23, "unit": "OD"}, {"measurement": "OD492", "setting": "HCV Core1-169 [8]", "result": 0.21, "unit": "OD"}, {"measurement": "OD492", "setting": "HCV Core1-169 [9]", "result": 0.26, "unit": "OD"}, {"measurement": "OD492", "setting": "HCV Core1-169 [13]", "result": 0.15, "unit": "OD"}, {"measurement": "OD492", "setting": "HCV Core1-169 [10]", "result": 0.23, "unit": "OD"}, {"measurement": "OD492", "setting": "HCV Core1-169 [11]", "result": 0.89, "unit": "OD"}, {"measurement": "Kd", "setting": "[12]", "result": 0.36, "unit": "nM"}, {"measurement": "koff", "setting": "[12]", "result": 0.00047, "unit": "s⁻¹"}, {"measurement": "kon", "setting": "[12]", "result": "1.3e+06", "unit": "M⁻¹ s⁻¹"}]}
{"binder": "HCV 208A-422 (antibody, V domains shown) VH: DVQLQESGPGLVNPSQSLSLTCSVTGYSITSGYYWIWIQQSPGNKLEWMGYIKYDGGNNYSPSLKNRISIARDTSKNQCFLKLNSVTIEDTATYYCTRGSDSFDYWGQGTTLTVSS VL: DIVLTQSPASLAVSLGQRAIISCKASQSVSFAGTNLMHWYQQKPGQQPKLLIYRASNLETGVPTRFSGSGSRTDFTLNIHPVEEDDAATYYCQQSREYYTFGGGTKLEIKR", "values": [{"measurement": "OD (A492)", "setting": "HCV Core1-169 [14]", "result": 1.68, "unit": "OD"}, {"measurement": "OD (A492)", "setting": "HCV Core1-169 [15]", "result": 0.18, "unit": "OD"}]}
{"binder": "HCV 208A-207 (antibody, V domains shown) VH: QGQLQQPGAEFVKPGASLKLSCRASGYTFTSYWIHWVKQRPGQGLEWIGEIDPSDSYINQNQKFRGKATLTVDKSSSTAYMELSGLTSEDSAVYYCARHYYGVLDSWGQGTTLTVSS VL: DIVLTQSPATLSVTPGDRVSLSCRASQRIYNYLHWYQQKSHESPRLLTKYASQSISGIPSRFSGSGSGTDFILTINSVETEDFGMYFCQQSNSWPLTFGAGTKLELRR", "values": [{"measurement": "OD492", "setting": "HCV Core1-169 [1]", "result": 2.2, "unit": "OD"}, {"measurement": "OD492", "setting": "HCV Core1-169 [2]", "result": 0.38, "unit": "OD"}, {"measurement": "OD492", "setting": "HCV Core1-169 [3]", "result": 0.37, "unit": "OD"}, {"measurement": "OD492", "setting": "HCV Core1-169 [4]", "result": 0.36, "unit": "OD"}, {"measurement": "OD492", "setting": "HCV Core1-169 [5]", "result": 0.3, "unit": "OD"}, {"measurement": "OD492", "setting": "HCV Core1-169 [6]", "result": 0.33, "unit": "OD"}, {"measurement": "OD492", "setting": "HCV Core1-169 [7]", "result": 0.33, "unit": "OD"}, {"measurement": "OD492", "setting": "HCV Core1-169 [8]", "result": 0.82, "unit": "OD"}, {"measurement": "OD492", "setting": "HCV Core1-169 [9]", "result": 0.42, "unit": "OD"}, {"measurement": "OD492", "setting": "HCV Core1-169 [13]", "result": 0.42, "unit": "OD"}, {"measurement": "OD492", "setting": "HCV Core1-169 [10]", "result": 0.37, "unit": "OD"}, {"measurement": "OD492", "setting": "HCV Core1-169 [11]", "result": 2.47, "unit": "OD"}, {"measurement": "Kd", "setting": "[12]", "result": "< 0.032", "unit": "nM"}, {"measurement": "koff", "setting": "[12]", "result": "< 1e-05", "unit": "s⁻¹"}, {"measurement": "kon", "setting": "[12]", "result": 310000, "unit": "M⁻¹ s⁻¹"}]}
